Where a chain is given by its changes, count along the chain named.
B1: TPP-30792 (antibody, human IgG1, lambda, V domains shown)
V domain 1: EVQLLESGGGLVQPGGSLRLSCAASGFTFRSYAVHWVRQAPGKGLEWVSSTEGSGVGTSYTDSVKGRFTISRDNSKNTLYLQMNSLRAEDTAVYYCARMLGGGNPLDYLDYWGQGTLVTVSS
V domain 2: QSVLTQPPSASGTPGQRVTISCSGSSSNLGEGYDVHWYQQLPGKAPKLLIYYSDFRPSGVSDRFSGSKSGTSASLAISGLQSEDEADYYCAAWDDSLSSQVFGGGTQVTVLG
notes: IgG1; prior art, WO 2020/261281; also called 3H4 Univ Ramot; 3H4 (Ramot) Clon I
B2: TPP-15374 (antibody, human IgG1, lambda, V domains shown)
VH: EVQLLESGGGLVQPGGSLRLSCAASGFTFSSYEMNWVRQAPGKGLEWVSGISWNSGSIGYADSVKGRFTISRDNSKNTLYLQMNSLRAEDTAVYYCARSGYSSSWFDPDFDYWGQGTLVTVSS
VL: QSVLTQPPSASGTPGQRVTISCTGSSSNIGAGYDVHWYQQLPGTAPKLLIYGNSNRPSGVPDRFSGSKSGTSASLAISGLRSEDEADYYCSSYAGSNPYVVFGGGTKLTVLG
notes: human IgG1; also called IgG1, hit from panning; parental mAb
B3: TPP-11489 (antibody, human IgG1, lambda)
heavy: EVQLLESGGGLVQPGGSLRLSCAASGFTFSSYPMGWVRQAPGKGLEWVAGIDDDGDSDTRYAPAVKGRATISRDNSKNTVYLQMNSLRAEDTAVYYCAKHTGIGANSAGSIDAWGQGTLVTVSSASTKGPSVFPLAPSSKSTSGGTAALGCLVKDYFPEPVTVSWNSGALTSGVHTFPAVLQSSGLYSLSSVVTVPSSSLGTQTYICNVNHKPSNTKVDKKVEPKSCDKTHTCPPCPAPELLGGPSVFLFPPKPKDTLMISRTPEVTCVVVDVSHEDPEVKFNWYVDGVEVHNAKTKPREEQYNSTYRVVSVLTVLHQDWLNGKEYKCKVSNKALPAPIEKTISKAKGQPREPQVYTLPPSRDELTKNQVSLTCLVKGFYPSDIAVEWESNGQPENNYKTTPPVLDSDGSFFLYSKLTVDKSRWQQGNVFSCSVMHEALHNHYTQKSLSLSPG
light: SYELTQPPSVSVSPGQTARITCSGGGSYTGSYYYGWYQQKPGQAPVTVIYYNNKRPSDIPERFSGSLSGTTNTLTISGVQAEDEADYYCGSADNSGDAFGTGTKVTVLGQPKAAPSVTLFPPSSEELQANKATLVCLISDFYPGAVTVAWKADSSPVKAGVETTTPSKQSNNKYAASSYLSLTPEQWKSHRSYSCQVTHEGSTVEKTVAPTECS
notes: human IgG1; also called Chiome; Chiome Prior Art (hIgG1)
B4: TPP-30790 (antibody, human IgG1, kappa, V domains shown)
VH: EVQLVESGGGLVQLGGSLRLSCAASGFTFSSYYMSWVRQAPGKGLEWVSTIIKSGGYAYYPDSVKDRFTISRDNSKNTLYLQMNSLRAEDTAVYYCVKGGQGAMDYWGQGTTVTVSS
VL: EIVLTQSPATLSLSPGERATLSCRASQSIGDYLHWYQQKPGQAPRLLIYYASQSISGIPARFSGSGSGTDFTLTISSLEPEDFAVYYCQQGYSFPYTFGGGTKLEIKR
notes: prior art, WO 2020/225400; also called BI clone III; Böhringer (BI) Clone III
B5: TPP-30791 (antibody, human IgG1, kappa, V domains shown)
VH: B4 VH with V12L, Y80N
VL: B4 VL with Y49K
notes: prior art, WO 2020/225400; also called BI clone IV; Böhringer (BI) Clone IV

Columns and labels:
Assay in all cases: SPR, captured antibody, Sema3A domain analyte
[1] = target: T1, Cyno Semaphorin3A-Sema Domain, TPP-19122 (cynomolgus (Macaca fascicularis), UniProt Q63548 21-569 (rat entry), limits assumed)
T1 construct: produced inhouse
T1 chain: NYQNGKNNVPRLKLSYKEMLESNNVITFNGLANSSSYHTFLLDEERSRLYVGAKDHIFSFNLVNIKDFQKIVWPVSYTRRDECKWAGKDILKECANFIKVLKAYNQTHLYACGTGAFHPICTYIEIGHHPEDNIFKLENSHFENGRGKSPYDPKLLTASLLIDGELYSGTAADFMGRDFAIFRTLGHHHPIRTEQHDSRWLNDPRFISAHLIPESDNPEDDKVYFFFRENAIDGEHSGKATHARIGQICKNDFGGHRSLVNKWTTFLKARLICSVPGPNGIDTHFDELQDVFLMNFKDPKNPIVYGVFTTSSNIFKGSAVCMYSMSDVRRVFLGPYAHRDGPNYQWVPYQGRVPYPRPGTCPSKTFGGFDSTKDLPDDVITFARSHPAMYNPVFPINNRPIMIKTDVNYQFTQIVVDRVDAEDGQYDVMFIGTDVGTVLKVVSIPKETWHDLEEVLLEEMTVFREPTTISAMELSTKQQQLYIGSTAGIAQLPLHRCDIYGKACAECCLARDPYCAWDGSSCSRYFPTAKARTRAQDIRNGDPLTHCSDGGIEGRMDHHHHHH
Method: (§1) To assess the binding kinetics and affinity of anti-Sema3A antibodies as well as their species cross-reactivity profile, binding assays were conducted using surface plasmon resonance (SPR). Binding assays were performed on a Biacore T200 instrument or on a Biacore 8K+ instrument (Cytiva) at 25° C. using assay buffer HBS P+, 300 mM NaCl, 0.75 mM CaCl₂, 2.5 mM MgCl₂, 1 mg/ml BSA, 0.05% NaN₃. Antibodies were captured either via anti-human Fc IgGs (“Human antibody capture kit”, Order No. BR100839, Cytiva) or in case of Fc-tagged analytes by anti-human Fab IgGs (“Human Fab capture kit”, Order No. 28958325, Cytiva) covalently amine coupled to a Series S CM5 sensor chip (Cytiva). The amine coupling was carried out according to the manufacturer's instructions using 1-ethyl-3-(3-dimethylaminopropyl) carbodiimide hydrochloride (EDC), N-hydroxysuccinimide (NHS) and ethanolamine HCl, pH 8.5 (“Amine Coupling Kit” BR-1000-50, Cytiva.). For phage display hits Fc-tagged human and mouse Sema3A was used as analytes in a concentration range from 1.56-200 nM. Human, mouse, cynomolgus, rat, dog and pig monovalent Sema3A domain were used as analytes in a concentration series from […] in multi cycle kinetics mode or in 100 nM for binding analysis only. The sensor surface was regenerated with glycine pH 2.0 after each antigen injection. Obtained sensorgrams were double referenced (subtraction of reference flow cell signal and buffer injection) and were fitted to a 1:1 Langmuir binding model to derive kinetic data using the Biacore T200 Evaluation software.

[2] = target: T2, Mouse Semaphorin3A-Sema Domain, TPP-19069 (mouse, UniProt O08665 21-569)
T2 construct: produced inhouse
T2 sequence: T1 chain with Q3A, K102E, I126V, E138Q, N139D, F296S, I444V, V455I, I489V
Method: as §1

[3] = target: T3, Human Semaphorin3A-Sema Domain, TPP-19068 (human, UniProt Q14563 21-569)
T3 construct: produced inhouse in HEK293-6E; also called human monovalent Sema3A domain
T3 sequence: T1 chain with N61D, R205K, P213S, I303V, I396M, M402V, H450Y, T468A, I489V, S521A
Method: as §1

Binder | binding result [1] | binding result [2] | binding result [3] | Kd [1] | Kd [2] | Kd [3]
B1 | no binding | no binding | no binding | – | – | –
B2 | – | – | – | 46 nM | 8.3 nM | 15 nM
B3 | – | – | – | 63 nM | 160 nM | 73 nM
B4 | – | – | – | 0.077 nM | 0.04 nM | 0.015 nM
B5 | – | – | – | 0.057 nM | 0.028 nM | 0.012 nM
